In patent US9205136B2, “Human aminoacyl-tRNA synthetase polypeptides useful for the regulation of angiogenesis” (THE SCRIPPS RESEARCH INSTITUTE, priority 2000, dated 2015):

Key:
[1] = system: PMNs; assay: 125I-human mini TyrRS binding and competition assay on PMNs; details: for inhibition of 125I-mini TyrRS binding to PMNs by unlabeled ligand: 10 nM 125I-mini TyrRS, 200-fold molar excess of unlabeled ligand, on ice 2 hours
Protocol: The interaction of human mini TyrRS and PMNs was examined in binding studies using radioiodinated TyrRS molecules (Moser et al., 1993, J. Biol. Chem. 268:7125-28). Custom radioiodination of mini TyrRS with was performed by Research & Diagnostic Antibody (Richmond, Calif.). In the binding assays, 2×10^6 PMNs were first suspended in 120 μl of RPMI-1640 medium containing 20 mM Hepes (pH 7.4) and 10 mg/ml bovine serum albumin. […] Following incubation, cells were separated from unbound radioactivity by centrifugation at approximately 8000×g for 2 minutes through 500 μL, of a 10% sucrose/phosphate-buffered saline (PBS) cushion. The supernatant was aspirated, and the cell sediment was resuspended using EcoLite (ICN Biomedicals, Irvine, Calif.) and analyzed in a scintillation counter.
Following incubation, cells were separated from unbound radioactivity as described herein.

[2] = system: chick CAM; assay: Inhibition of VEGF165-induced or mini TyrRS-induced angiogenesis in chick CAM; format: in vivo; details: 3 μg inhibitor
Protocol: In vivo angiogenesis assays were conducted in chick chorioallantoic membrane (CAM) (Nicolaou et al., 1998, Bioorg. Med. Chem. 6:1185-208). Ten-day-old chick embryos were purchased from Mcintyre Poultry (Lakeside, Calif.) and were incubated at 37° C. and 70% humidity. A small hole was made with a small crafts drill (Dremel, Emerson Electric, Racine, Wis.) directly over the air sac at the end of the egg. The embryos were candled to determine a location to drill a second hole directly over embryonic blood vessels. […] A window was cut in the eggshell over the dropped CAM, exposing the CAM to direct access for experimental manipulation. Cortisone acetate-treated 5 mm filter disks were soaked with a particular protein sample (25 ng of VEGF165 or 250 ng of a given TyrRS molecule) and the filter disks added directly to the CAMs, which were relatively devoid of preexisting blood vessels. The windows were sealed with sterile tape and incubated at 37° C. At 0, 24, and 48 hours following incubation, 3 μg of […] (IP-10) (R & D Systems, Minneapolis, Minn.) was topically applied to the filter disks. After 72 hours, the CAM tissue associated with the filter disk was harvested and quantified using a stereomicroscope. Angiogenesis was assessed as the number of visible blood vessel branch points within the defined area of the filter disks. Each determination shown in FIG. 17 represents the mean from 5-8 embryos.
The angiostatic activity of human full-length TrpRS and human mini TrpRS was also analyzed in in vivo angiogenesis assays conducted in chick CAM. In vivo angiogenesis assays were performed as described in Example 12 with 3 μg of full-length TrpRS or mini TrpRS added to VEGF165-induced or mini TyrRS-induced CAM tissue.

[3] = system: MPs; assay: MP chemotaxis assay (ChemoTX microchemotaxis chamber); format: cell-based, human; details: for MP migration induced by synthetic peptide: assay as in Example 2; for MP chemotaxis (MP migration): sample proteins 1 nM, 3 hours
Protocol: (§1) Cells for the various cytokine assays described were prepared from acid citrate dextrose-treated blood of normal healthy volunteers. Human PMNs were isolated from the blood by centrifugation (700×g) over Histopaque 1077 and 1119 (Sigma). […] This procedure was repeated twice. Human MPs were isolated by centrifugation on Histopaque 1077 (Sigma). The mononuclear fraction was obtained, washed twice in Hanks' balanced salt solution, resuspended in RPMI-1640 medium (Sigma) containing 10% heat-inactivated fetal bovine serum (Sigma), plated in tissue culture flasks, and incubated in a 6% CO2 incubator at 37° C. for 1-2 hours (Kumagai et al., 1979, J. Immunol. Methods 29:17-25). Nonadherent cells were removed by washing the flasks three times with Hanks' balanced salt solution, and adherent cells were harvested by incubation with calcium-magnesium free phosphate-buffered saline containing 2 mM EDTA for 15 minutes at 4° C., followed by extensive washing.
MP chemotaxis assays were performed in a ChemoTX microchemotaxis chamber (Neuro Probe, Gaithersburg, Md.) containing polycarbonate filters (5 μm pores) with polyvinylpyrrolidone (PVP). MPs were suspended in RPMI-1640 medium containing 1% heat-inactivated fetal bovine serum, and 10^4 cells were added to the upper chamber. Sample proteins (1 nM) were added to the lower compartment of chemotaxis chambers, and the chambers were incubated for 3 hours. After incubation, nonmigrating cells were removed, membranes were fixed in methanol, and migrating cells were visualized with the HEMACOLOR™ stain set (EM Diagnostic Systems, Gibbstown, N.J.). Migrating cells were counted in high-power fields (HPFs). Each determination shown in FIG. 2 represents the average of nine HPF measurements.

[4] = system: PMNs; assay: PMN chemotaxis assay (ChemoTX microchemotaxis chamber); format: cell-based, human; details: for PMN migration induced by synthetic peptide: assay as in Example 2; for PMN chemotaxis (PMN migration): sample proteins 1 nM, 45 min
Protocol: as §1
PMN chemotaxis assays were performed in a ChemoTX microchemotaxis chamber (described herein). Sample proteins (1 nM) were added to the lower compartment of chemotaxis chambers, and 10^4 PMNs were added to the upper compartment. Chambers were incubated for 45 min, and migrating cells were counted in HPFs. Each determination shown in FIG. 2 represents the average of nine HPF measurements.

Molecule	inhibition of 125I-mini TyrRS binding to PMNs by unlabeled ligand [1]	MP migration induced by synthetic peptide ([3]; synthetic heptapeptides)	PMN migration induced by synthetic peptide ([4]; synthetic heptapeptides)	PMN chemotaxis (PMN migration) [4]	also measured
Gro: human recombinant Gro (Biosource International), α-chemokine	did not significantly inhibit the binding				
IP-10: angiostatic α-chemokine (R & D Systems)					inhibition of VEGF165-induced angiogenesis in chick CAM ([2]; 25 ng VEGF165, 72 hours): inhibited; inhibition of mini TyrRS-induced angiogenesis in chick CAM ([2]; 250 ng mini TyrRS, 72 hours): inhibited
R-V-G-F-I-Q-K (RVGFIQK; listed as Saccharomyces cerevisiae) [synthetic peptide derived from S. cerevisiae Arc1p, reference compound]		neither peptide induced PMN or MP migration	neither peptide induced PMN or MP migration		
R-V-G-K-I-I-T (RVGKIIT; listed as Homo sapiens) [TyrRS carboxyl-terminal domain peptide, synthetic peptide derived from the TyrRS carboxyl-terminal domain]		MP migration	induced PMN migration		dose-dependence of peptide effect on MP migration ([3]; synthetic heptapeptides): dose-dependence similar to that of the mature EMAP II peptide; dose-dependence of peptide effect on PMN migration ([4]; synthetic heptapeptides): dose-dependence similar to that of the mature EMAP II peptide
R-V-G-R-I-I-K (RVGRIIK; Caenorhabditis elegans) [synthetic peptide derived from C. elegans MetRS, reference compound]		neither peptide induced PMN or MP migration	neither peptide induced PMN or MP migration		
EMAP II: human mature endothelial monocyte-activating polypeptide II, C-terminal His6 tag (protein) ANNDAVLKRLEQKGAEADQIIEYLKQQVSLLKEKAILQATLREEKKLRVENAKLKKEIEELKQELIQAEIQNGVKQIPFPSGTPLHANSMVSENVIQSTAVTTVSSGTKEQIKGGTGDEKKAKEKIEKKGEKKEKKQQSIAGSADSKPIDVSRLDLRIGCIITARKHPDADSLYVEEVDVGEIAPRTVVSGLVNHVPLEQMQNRMVILLCNLKPAKMRGVLSQAMVMCASSPEKIEILAPPNGSVPGDRITFDAFPGEPDKELNPKKKIWEQIQPDLHTNDECVATYKGVPFEVKGKGVCRAQTMSNSGIKHHHHHH	neither the TyrRS carboxyl-terminal domain nor EMAP II inhibited			induction of PMN migration	concentration dependence of PMN migration [4]: bell-shaped concentration dependence
truncated mini TyrRS: recombinant truncated mini TyrRS comprising residues 1-344 of human full-length TyrRS (protein, UniProt P54577 1-344, looked up, fragment) MGDAPSPEEKLHLITRNLQEVLGEEKLKEILKERELKIYWGTATTGKPHVAYFVPMSKIADFLKAGCEVTILFADLHAYLDNMKAPWELLELRVSYYENVIKAMLESIGVPLEKLKFIKGTDYQLSKEYTLDVYRLSSVVTQHDSKKAGAEVVKQVEHPLLSGLLYPGLQALDEEYLKVDAQFGGIDQRKIFTFAEKYLPALGYSKRVHLMNPMVPGLTGSKMSSSEEESKIDLLDRKEDVKKKLKKAFCEPGNVENNGVLSFIKHVLFPLKSEFVILRDEKWGGNKTYTAYVDLEKDFAAEVVHPGDLKNSVEVALNKLLDPIREKFNTPALKKLASAAYPDP				capable of functioning as a chemoattractant for PMNs	MP chemotaxis (MP migration) [3]: not for MPs
NAP-2: human recombinant NAP-2 (Biosource International), α-chemokine (protein) AELRCMCIKTTSGIHPKNIQSLEVIGKGTHCNQVEVIATLKDGRKICLDPDAPRIKKIVQKKLAGDESAD	did not significantly inhibit the binding				
S. cerevisiae TyrRS: S. cerevisiae tyrosyl-tRNA synthetase, NYR in place of ELR (protein) MSSAATVDPNEAFGLITKNLQEVLNPQIIKDVLEVQKRHLKLYWGTAPTGRPHCGYFVPMTKLADFLKAGCEVTVLLADLHAFLDNMKAPLEVVNYRAKYYELTIKAILRSINVPIEKLKFVVGSSYQLTPDYTMDIFRLSNIVSQNDAKRAGADVVKQVANPLLSGLIYPLMQALDEQFLDVDCQFGGVDQRKIFVLAEENLPSLGYKKRAHLMNPMVPGLAQGGKMSASDPNSKIDLLEEPKQVKKKINSAFCSPGNVEENGLLSFVQYVIAPIQELKFGTNHFEFFIDRPEKFGGPITYKSFEEMKLAFKEEKLSPPDLKIGVADAINELLEPIRQEFANNKEFQEASEKGYPVATPQKSKKAKKPKNKGTKYPGATKTNEIATKLEETKL	inhibited the binding			no chemotaxis was observed	dissociation constant relative to that for human mini TyrRS ([1]; PMN binding competition): ≤ 200 fold; PMN chemotaxis over a concentration series ([4]; 0.1, 1, 10, 100, and 1000 nM): No significant chemotaxis
extended carboxyl-terminal domain: recombinant residues 344-528 of human full-length TyrRS (protein, UniProt P54577 344-528, looked up, fragment) PSKQKPMAKGPAKNSEPEEVIPSRLDIRVGKIITVEKHPDADSLYVEKIDVGEAEPRTVVSGLVQFVPKEELQDRLVVVLCNLKPQKMRGVESQGMLLCASIEGINRQVEPLDPPAGSAPGEHVFVKGYEKGQPDEELKPKKKVFEKLQADFKISEECIAQWKQTNFMTKLGSISCKSLKGGNIS				capable of can inducing both MP and PMN chemotaxis	MP chemotaxis (MP migration) [3]: capable of can inducing both MP and PMN chemotaxis
